Target: T1, 19-mer (SEQ ID NO:11) cleavage domain peptide
T1 chain: PRCGNPDVANYNFFPRKPK

B1: Proenzyme pro-MMP-9 (protein)
chain: APRQRQSTLVLFPGDLRTNLTDRQLAEEYLYRYGYTRVAEMRGESKSLGPALLLLQKQLSLPETGELDSATLKAMRTPRCGVPDLGRFQTFEGDLKWHHHNITYWIQNYSEDLPRAVIDDAFARAFALWSAVTPLTFTRVYSRDADIVIQFGVAEHGDGYPFDGKDGLLAHAFPPGPGIQGDAHFDDDELWSLGKGVVVPTRFGNADGAACHFPFIFEGRSYSACTTDGRSDGLPWCSTTANYDTDDRFGFCPSERLYTQDGNADGKPCQFPFIFQGQSYSACTTDGRSDGYRWCATTANYDRDKLFGFCPTRADSTVMGGNSAGELCVFPFTFLGKEYSTCTSEGRGDGRLWCATTSNFDSDKKWGFCPDQGYSLFLVAAHEFGHALGLDHSSVPEALMYPMYRFTEGPPLHKDDVNGIRHLYGPRPEPEPRPPTTTTPQPTAPPTVCPTGPPTVHPSERPTAGPTGPPSAGPTGPPTAGPSTATTVPLSPVDDACNVNIFDAIAEIGNQLYLFKDGKYWRFSEGRGSRPQGPFLIADKWPALPRKLDSVFEERLSKKLFFFSGRQVWVYTGASVLGPRRLDKLGLGADVAQVTGALRSGRGKMLLFSGRRLWRFDVKAQMVDPRSASEVDRMFPGVPLDTHDVFQYREKAYFCQDRFYWRVSSRSELNQVDQVGYVTYDILQCPED
anti-activation (splicing) assay: conversion of pro-MMP-9 by stromilysin, followed by HPLC: Titrating the standard splicing reaction with the 19-mer (SEQ ID NO:11) peptide prevents the conversion of pro-MMP-9 into the prodomain and the active enzyme ... Splicing can be inhibited in a dose dependent manner with micromolar 19-mer (SEQ ID NO:11) peptide
